Assay results published in US20120015885A1 (published 2012).
Blank lines part the entries; values can stand above or below the binder they belong to.

Key:
[1] = target: calcium/calmodulin (CaM)-dependent protein kinase II (CaMKII) (UniProt P11275 1-478); assay: cell-based or functional assay
CaMKI = assay: cell-based or functional assay
biotinylated CaM = biotinylated CaM (UniProt P0DP23 2-149); assay: slot blot with biotinylated CaM (FIG. 9E) and TA-CaM competition (FIG. 9G)
[2] = target: 2-chloro-(ε-amino-Lys75)-[6-(4-N,N-diethylaminophenyl)-1,3,5-triazin-4-yl]calmodulin (TA-CaM) (UniProt P0DP23 2-149); assay: competition with CBD for TA-CaM, fluorescence

Chain of calcium/calmodulin (CaM)-dependent protein kinase II (CaMKII) (P11275 whole entry): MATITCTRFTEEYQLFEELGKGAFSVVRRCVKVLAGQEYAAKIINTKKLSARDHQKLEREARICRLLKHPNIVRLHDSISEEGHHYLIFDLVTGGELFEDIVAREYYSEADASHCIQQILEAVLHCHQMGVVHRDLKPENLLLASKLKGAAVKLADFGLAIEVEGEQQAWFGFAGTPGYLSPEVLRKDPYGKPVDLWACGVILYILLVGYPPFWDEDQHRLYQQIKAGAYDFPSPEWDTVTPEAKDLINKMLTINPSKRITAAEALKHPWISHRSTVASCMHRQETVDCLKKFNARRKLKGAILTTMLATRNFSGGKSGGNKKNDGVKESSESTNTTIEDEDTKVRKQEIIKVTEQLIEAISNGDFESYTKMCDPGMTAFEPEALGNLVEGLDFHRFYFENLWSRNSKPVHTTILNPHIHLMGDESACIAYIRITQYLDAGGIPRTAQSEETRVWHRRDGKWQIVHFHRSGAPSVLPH

IC50, phosphorylation of syntide 2 by CaMKII [1]: ~100 nM
Binder: KRPPKLGQIGRSKRVVIEDDR [CN21]

IC50, CaMKII activity [1]: < 10 nM
fold increase of potency against CN19 wild type [1]: > 10 fold
Binder: KRPPKLGQIGRSKAVVIED [CN19 R14A]

IC50, CaMKII activity [1]: ~1 nM
Binder: KRAPKLGQIGRVKAVDIED [V16D mutant of CN19a2v]

IC50, CaMKI activity (CaMKI): ~36000 nM
IC50, phosphorylation of syntide 2 by CaMKII [1]: ~100 nM
Binder: KRPPKLGQIGRSKRVVIED [CN19]

Second part, the binder before the results:

Binder: KRAPKLGQIGRQKAVVIED [V12Q mutant of CN19a2v]
IC50, CaMKII activity [1]: ~1 nM

Binder: KRAPKLGQIGRVKAVVIED [CN19a2v]
IC50, CaMKI activity (CaMKI): ~18000 nM
IC50, CaMKII activity towards syntide 2 [1]: ~20 nM
fold increase of potency against CN19 [1]: ~5 fold

Binder: KRPPKLGQIGRSKRVVIEDDRIDDVLK (also called CaM-KIINtide) [CN27]
binding result (biotinylated CaM): no binding

Binder: KRAPKLGQIGRQKAVDIED [CN19o]
IC50, CaMKI activity (CaMKI): ~38000 nM
IC50, CaMKII activity [1]: ~0.75 nM
fold increase of potency against CN19 [1]: > 125 fold
selectivity for CaMKII vs CaMKI [1]: ~50000 fold

B1: antCN27 (peptide)
peptide: RQIKIWFQNRRMKWKKRPPKLGQIGRSKRVVIEDDRIDDVLK
notes: a final (K) of ant was replaced by the first K of the CN peptide in the fusion
Kd [2]: ~1 nM

Binder: KRPPKLGQIGRSKRVVIEDD [CN20]
IC50, phosphorylation of syntide 2 by CaMKII [1]: ~100 nM

B2: ant (peptide)
peptide: RQIKIWFQNRRMKWK
notes: whether the free peptide had it is not clear; also called ant peptide; penetratin
Kd [2]: ~5 nM
